Results reported in patent publication US20240181094A1, “[161Tb]-BASED RADIOPEPTIDES” (priority 2021, published 2024).
Like-named read-outs stand apart in the source and are kept apart here. Starred links: 1 amine or outer side, 2 acyl side, 3 side chain; linkers in the order of their positions; H or OH if unused. Positions of bridges follow the written chain, without caps; N, C: chain ends. Non-standard residues stand in square brackets, D forms with d. Residues, ends and D or L forms follow the SMILES beside them. *: point of attachment. DOTA = O=C(O)CN1CCN(CC(=O)O)CCN(CC(=O)*)CCN(CC(=O)O)CC1; X1 = NC(=O)Nc1ccc(CC(N[*:1])C(=O)[*:2])cc1; Phe(4-Cl) = N[CH](Cc1ccc(Cl)cc1)C(=O)O

What was measured:
[1] = system: AR42 J tumor-bearing mice; test: Preclinical therapy study in AR42 J tumor-bearing mice; format: in vivo; details: 2 x 10 MBq
[2] = system: AR42J tumor-bearing mice; test: Biodistribution studies: assessment of the optimum injected molar amount; details: 2 h p.i.
[3] = mouse, in vivo
Procedure: Early side effects were assessed based on the RBW of each mouse which was monitored every second day. When an endpoint was reached or at the end of the study (after 49 days), relevant organs and tissues were collected, weighed and put into relation to the brain mass and body weight of the respective mouse. This allowed comparison of organ-to-brain and organ-to-body mass weight ratios. In addition, blood plasma parameters from blood collected immediately after euthanasia were measured.
RBW, organ mass and mass ratios at the endpoint. The RBW was monitored every second day. Mice were euthanized when a predefined endpoint criterion was reached or when the study was terminated at Day 49. RBWs, organ masses, organ mass ratios (kidney-to-brain, liver-to-brain and spleen-to-brain) and organ mass to body weight ratios (kidney-to-body mass, liver-to-body mass and spleen-to-body mass) were analyzed for significance using a one-way ANOVA test with a Tukey's multiple comparisons post-test. A p-value of <0.05 was considered as statistically significant.
Blood plasma chemistry: Immediately before euthanasia of the mice that reached the endpoint, blood was sampled from the retrobulbar vein. The values of creatinine (CRE), blood urea nitrogen (BUN), alkaline phosphatase (ALP), total bilirubin (TBIL) and albumin (ALB) were determined in the plasma after centrifugation of the blood using a dry chemistry analyzer (DRI-CHEM 4000 i, FUJIFILM, Japan). The average blood plasma parameters of each group were analyzed for significance using a one-way ANOVA test with a Tukey's multiple comparisons post-test. A p-value of <0.05 was considered as statistically significant.

[4] = system: AR42J tumor-bearing mice; details: 0.2 nmol/mouse
Procedure: Five-week-old female, athymic nude mice (CD-1 Foxn-1/nu) were obtained from Charles River Laboratories (Sulzfeld, Germany). Mice were subcutaneously inoculated with AR42 J tumor cells (5×10^6 cells in 100 μl PBS) for SPECT/CT imaging, biodistribution and therapy studies. The SPECT/CT and biodistribution studies were performed 10-14 days after tumor cell inoculation when the tumor size reached a volume of ˜250 mm^3.
The mice were sacrificed at 0.5 h, 2 h, 4 h, 24 h and 48 h p.i, selected tissues and organs were collected, weighed, and the accumulated activity was counted using a γ-counter (Perkin Elmer). The decay-corrected data were listed as % IA/g. The data were analyzed for significance using a two-way ANOVA with Tukey's multiple comparison post-tests. A p-value of <0.05 was considered statistically significant.

**Q.** For `C[C@@H](O)[C@@H]1NC(=O)[C@H](CCCCN)NC(=O)[C@@H](Cc2c[nH]c3ccccc23)NC(=O)[C@H](Cc2ccc(O)cc2)NC(=O)[C@@H](NC(=O)[C@@H](Cc2ccccc2)NC(=O)CN2CCN(CC(=O)O)CCN(CC(=O)O)CCN(CC(=O)O)CC2)CSSC[C@@H](C(=O)N[C@H](CO)[C@@H](C)O)NC1=O` [[^161Tb]Tb-DOTATOC] [metal not drawn], which Median survival ([1]; 0.2 nmol (Day 0, Day 7)) is on record?
**A.** 21 days

**Q.** What about the tumor growth delay ([1]; 0.2 nmol (Day 0, Day 7)) of the same compound?
**A.** 9.0 ± 5.5 days

**Q.** And the tumor doubling time ([1]; 0.2 nmol, regrowth phase, fitted exponential curve)?
**A.** 3.4 ± 3.6 days

**Q.** And the “AR42J Tumor uptake” value ([2]; 0.040 nmol/mouse)?
**A.** 16 ± 4 % IA/g

**Q.** And the Adrenals uptake ([2]; 0.040 nmol/mouse)?
**A.** 0.65 ± 0.08 % IA/g

**Q.** What about the Intestines uptake ([2]; 0.040 nmol/mouse) of the same compound?
**A.** 0.52 ± 0.15 % IA/g

**Q.** What about the Kidneys uptake ([2]; 0.040 nmol/mouse) of the same compound?
**A.** 9.0 ± 2.0 % IA/g

**Q.** What about the Liver uptake ([2]; 0.040 nmol/mouse) of the same compound?
**A.** 0.22 ± 0.02 % IA/g

**Q.** And the Pancreas uptake ([2]; 0.040 nmol/mouse)?
**A.** 2.1 ± 0.5 % IA/g

**Q.** What about the Spleen uptake ([2]; 0.040 nmol/mouse) of the same compound?
**A.** 0.50 ± 0.11 % IA/g

**Q.** And the Stomach uptake ([2]; 0.040 nmol/mouse)?
**A.** 2.9 ± 1.1 % IA/g

**Q.** And the “AR42J Tumor uptake” value ([2]; 0.20 nmol/mouse)?
**A.** 14 ± 1 % IA/g

**Q.** What about the Adrenals uptake ([2]; 0.20 nmol/mouse) of the same compound?
**A.** 0.43 ± 0.11 % IA/g

**Q.** And the Blood uptake ([2]; 0.20 nmol/mouse)?
**A.** ≤0.10 % IA/g

**Q.** And the Femur uptake ([2]; 0.20 nmol/mouse)?
**A.** 0.12 ± 0.03 % IA/g

**Q.** What about the Intestines uptake ([2]; 0.20 nmol/mouse) of the same compound?
**A.** 0.24 ± 0.01 % IA/g

**Q.** And the Kidneys uptake ([2]; 0.20 nmol/mouse)?
**A.** 9.4 ± 0.4 % IA/g

**Q.** And the Liver uptake ([2]; 0.20 nmol/mouse)?
**A.** 0.19 ± 0.03 % IA/g

**Q.** What about the Lung uptake ([2]; 0.20 nmol/mouse) of the same compound?
**A.** 0.47 ± 0.05 % IA/g

**Q.** What about the Pancreas uptake ([2]; 0.20 nmol/mouse) of the same compound?
**A.** 1.5 ± 0.2 % IA/g

**Q.** What about the Spleen uptake ([2]; 0.20 nmol/mouse) of the same compound?
**A.** 0.18 ± 0.02 % IA/g

**Q.** What about the “AR42J Tumor uptake” value ([2]; 1.0 nmol/mouse) of the same compound?
**A.** 8.2 ± 0.2 % IA/g

**Q.** And the Adrenals uptake ([2]; 1.0 nmol/mouse)?
**A.** 0.25 ± 0.06 % IA/g

**Q.** And the Blood uptake ([2]; 1.0 nmol/mouse)?
**A.** ≤0.10 % IA/g

**Q.** What about the Femur uptake ([2]; 1.0 nmol/mouse) of the same compound?
**A.** ≤0.10 % IA/g

**Q.** And the Heart uptake ([2]; 1.0 nmol/mouse)?
**A.** ≤0.10 % IA/g

**Q.** And the Intestines uptake ([2]; 1.0 nmol/mouse)?
**A.** 0.21 ± 0.13 % IA/g

**Q.** And the Kidneys uptake ([2]; 1.0 nmol/mouse)?
**A.** 9.9 ± 1.3 % IA/g

**Q.** What about the Liver uptake ([2]; 1.0 nmol/mouse) of the same compound?
**A.** 0.17 ± 0.01 % IA/g

**Q.** And the Lung uptake ([2]; 1.0 nmol/mouse)?
**A.** 0.27 ± 0.03 % IA/g

**Q.** And the Muscle uptake ([2]; 1.0 nmol/mouse)?
**A.** ≤0.10 % IA/g

**Q.** And the Pancreas uptake ([2]; 1.0 nmol/mouse)?
**A.** 0.71 ± 0.07 % IA/g

**Q.** And the Spleen uptake ([2]; 1.0 nmol/mouse)?
**A.** 0.11 ± 0.02 % IA/g

**Q.** And the Stomach uptake ([2]; 1.0 nmol/mouse)?
**A.** 0.74 ± 0.38 % IA/g

**Q.** What about the kidney uptake ([2]; irrespective of the injected amount of peptide) of the same compound?
**A.** ~10 % IA/g

**Q.** And the “ALB (albumin), plasma” value [3]?
**A.** 23 ± 2 g/L

**Q.** What about the “ALP (alkaline phosphatase), plasma” value [3] of the same compound?
**A.** 76 ± 21 U/L

**Q.** What about the “BUN (blood urea nitrogen), plasma” value [3] of the same compound?
**A.** 5.8 ± 1.0 mmol/L

**Q.** And the “CRE (creatinine), plasma” value [3]?
**A.** <18 µmol/L

**Q.** What about the “Organ mass Brain” value [3] of the same compound?
**A.** 440 ± 23 mg

**Q.** What about the “Organ mass Kidneys” value [3] of the same compound?
**A.** 352 ± 27 mg

**Q.** What about the “Organ mass Liver” value [3] of the same compound?
**A.** 1195 ± 57 mg

**Q.** What about the “Organ mass Spleen” value [3] of the same compound?
**A.** 86 ± 19 mg

**Q.** For `CC(O)C1NC(=O)C(CCCCN)NC(=O)C(Cc2ccc(NC(N)=O)cc2)NC(=O)C(Cc2ccc(O)cc2)NC(=O)C(NC(=O)C(Cc2ccc(Cl)cc2)NC(=O)CN2CCN(CC(=O)O)CCN(CC(=O)O)CCN(CC(=O)O)CC2)CSSCC(C(=O)NC(Cc2ccc(O)cc2)C(N)=O)NC1=O` (stereo not drawn) [metal not drawn] ({DOTA}-[Phe(4-Cl)]CY[X1]KTCY-NH2; disulfide 2-7; configuration not given here), which Blood uptake ([4]; 0.5 h p.i.) is on record?
**A.** 1.3 ± 0.2 % IA/g

**Q.** And the Blood uptake ([4]; 2 h p.i.)?
**A.** ≤0.10 % IA/g

**Q.** And the Muscle uptake ([4]; 2 h p.i.)?
**A.** ≤0.10 % IA/g

**Q.** And the Spleen uptake ([4]; 2 h p.i.)?
**A.** 0.41 ± 0.08 % IA/g

**Q.** What about the Blood uptake ([4]; 4 h p.i.) of the same compound?
**A.** ≤0.10 % IA/g

**Q.** What about the Heart uptake ([4]; 4 h p.i.) of the same compound?
**A.** ≤0.10 % IA/g

**Q.** What about the Kidneys uptake ([4]; 4 h p.i.) of the same compound?
**A.** 9.0 ± 1.2 % IA/g

**Q.** And the Muscle uptake ([4]; 4 h p.i.)?
**A.** ≤0.10 % IA/g

**Q.** What about the Blood uptake ([4]; 24 h p.i.) of the same compound?
**A.** ≤0.10 % IA/g

**Q.** What about the Heart uptake ([4]; 24 h p.i.) of the same compound?
**A.** ≤0.10 % IA/g

**Q.** What about the Muscle uptake ([4]; 24 h p.i.) of the same compound?
**A.** ≤0.10 % IA/g

**Q.** And the Blood uptake ([4]; 48 h p.i.)?
**A.** ≤0.10 % IA/g

**Q.** And the Heart uptake ([4]; 48 h p.i.)?
**A.** ≤0.10 % IA/g

**Q.** What about the Muscle uptake ([4]; 48 h p.i.) of the same compound?
**A.** ≤0.10 % IA/g

**Q.** And the “ALB (albumin), plasma” value [3]?
**A.** 22 ± 1 g/L

**Q.** What about the “ALP (alkaline phosphatase), plasma” value [3] of the same compound?
**A.** 65 ± 15 U/L

**Q.** What about the “Organ mass Brain” value [3] of the same compound?
**A.** 465 ± 30 mg

**Q.** What about the “Organ mass Kidneys” value [3] of the same compound?
**A.** 332 ± 46 mg

**Q.** And the “Organ mass Liver” value [3]?
**A.** 1275 ± 254 mg

**Q.** And the “Organ mass Spleen” value [3]?
**A.** 85 ± 27 mg
